# IntAct's records for PubMed 29039417
# B1: Protein PTHB1 (Homo sapiens), Q3SYG4 (parent)
# chain: MSLFKARDWWSTILGDKEEFDQGCLCLANVDNSGNGQDKIIVGSFMGYLRIFSPHPAKTGDGAQAEDLLLEVDLRDPVLQVEVGKFVSGTEMLHLAVLHSRKLCVYSVSGTLGNVEHGNQCQMKLMYEHNLQRTACNMTYGSFGGVKGRDLICIQSMDGMLMVFEQESYAFGRFLPGFLLPGPLAYSSRTDSFLTVSSCQQVESYKYQVLAFATDADKRQETEQQKLGSGKRLVVDWTLNIGEQALDICIVSFNQSASSVFVLGERNFFCLKDNGQIRFMKKLDWSPSCFLPYCSVSEGTINTLIGNHNNMLHIYQDVTLKWATQLPHIPVAVRVGCLHDLKGVIVTLSDDGHLQCSYLGTDPSLFQAPNVQSRELNYDELDVEMKELQKIIKDVNKSQGVWPMTEREDDLNVSVVVSPNFDSVSQATDVEVGTDLVPSVTVKVTLQNRVILQKAKLSVYVQPPLELTCDQFTFEFMTPDLTRTVSFSVYLKRSYTPSELEGNAVVSYSRPTDRNPDGIPRVIQCKFRLPLKLICLPGQPSKTASHKITIDTNKSPVSLLSLFPGFASQSDDDQVNVMGFHFLGGARITVLASKTSQRYRIQSEQFEDLWLITNELILRLQEYFEKQGVKDFACSFSGSIPLQEYFELIDHHFELRINGEKLEELLSERAVQFRAIQRRLLARFKDKTPAPLQHLDTLLDGTYKQVIALADAVEENQGNLFQSFTRLKSATHLVILLIALWQKLSADQVAILEAAFLPLQEDTQELGWEETVDAAISHLLKTCLSKSSKEQALNLNSQLNIPKDTSQLKKHITLLCDRLSKGGRLCLSTDAAAPQTMVMPGGCTTIPESDLEERSVEQDSTELFTNHRHLTAETPRPEVSPLQGVSE
# partner: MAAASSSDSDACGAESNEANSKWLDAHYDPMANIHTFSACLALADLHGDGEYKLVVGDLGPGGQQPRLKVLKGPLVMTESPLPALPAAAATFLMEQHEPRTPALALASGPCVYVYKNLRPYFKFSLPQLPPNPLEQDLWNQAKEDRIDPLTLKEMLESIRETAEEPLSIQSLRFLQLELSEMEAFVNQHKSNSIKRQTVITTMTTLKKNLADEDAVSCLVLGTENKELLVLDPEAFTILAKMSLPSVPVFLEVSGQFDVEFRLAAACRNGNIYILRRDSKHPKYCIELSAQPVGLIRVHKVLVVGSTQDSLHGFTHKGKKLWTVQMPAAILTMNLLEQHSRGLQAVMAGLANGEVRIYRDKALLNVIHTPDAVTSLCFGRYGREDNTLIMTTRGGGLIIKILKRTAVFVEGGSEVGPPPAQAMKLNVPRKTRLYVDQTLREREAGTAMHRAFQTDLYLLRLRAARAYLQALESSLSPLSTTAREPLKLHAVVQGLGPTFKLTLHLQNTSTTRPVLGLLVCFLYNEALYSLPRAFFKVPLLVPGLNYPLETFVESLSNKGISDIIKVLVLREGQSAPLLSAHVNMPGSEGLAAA
# Variants of: B1
# Conditions: with bbs1_human BBS1, Q8NFJ9
row,Variant,effect of a mutation on the interaction
1,M477E,with no effect
2,M477A,with no effect
3,V706K,with no effect
4,V706A,with no effect
5,N420A,with no effect
6,L662A,with no effect
7,L662E,with no effect
8,L882A,with no effect
9,C634K,with no effect
10,R868A,with no effect
11,R528K,with no effect
12,R493K,with no effect
13,V485K,with no effect
14,F636E,with no effect
15,S545N,disrupting interaction strength
16,P802A,with no effect
17,V424A,with no effect
18,V424K,with no effect
19,A775T,disrupting interaction strength
20,Q462E,with no effect
21,M839K,with no effect
22,G433K,with no effect
23,N658E,with no effect
24,L665A,with no effect
25,D513E,with no effect
26,L500A,with no effect

row,Variant,effect of a mutation on the interaction
1,A710K,with no effect
2,P438A,with no effect
3,P438E,with no effect
4,D804E,with no effect
5,D804K,with no effect
6,R483A,with no effect
7,E654A,with no effect
8,E604K,with no effect
9,E873A,with no effect
10,G502A,with no effect
11,G502E,with no effect
12,G502K,with no effect
13,S458E,with no effect
14,V444E,with no effect
15,S820A,with no effect
16,A504E,with no effect
17,V440A,with no effect
18,D859K,with no effect
19,T478K,with no effect
20,I846E,with no effect
21,I776K,with no effect
22,G579A,with no effect
23,P840E,with no effect
24,M837A,with no effect
25,I451K,with no effect
26,I451E,with no effect

row,Variant,effect of a mutation on the interaction
1,D572K,with no effect
2,D572A,with no effect
3,I812E,with no effect
4,S860E,with no effect
5,S860A,with no effect
6,P691L,disrupting interaction strength
7,D747E,with no effect
8,G841E,disrupting interaction strength
9,R598K,with no effect
10,A567E,with no effect
11,A427E,with no effect
12,S541K,with no effect
13,L736E,with no effect
14,L759A,with no effect
15,L733A,disrupting interaction strength
16,V838K,disrupting interaction strength
17,Q677Y,disrupting interaction strength
18,K630A,with no effect
19,Q883A,with no effect
20,D573A,with no effect
21,Y623E,with no effect
22,S880E,with no effect
23,T595K,with no effect
24,T702C,disrupting interaction strength
25,T702A,with no effect
26,S593K,with no effect

row,Variant,effect of a mutation on the interaction
1,L452K,with no effect
2,N800E,with no effect
3,R521E,with no effect
4,L870E,with no effect
5,S777A,with no effect
6,L799A,with no effect
7,S886K,with no effect
8,D422A,with no effect
9,K821E,with no effect
10,R683A,with no effect
11,R683E,with no effect
12,V505A,with no effect
13,L436E,with no effect
14,T482A,with no effect
15,D480E,with no effect
16,M578E,with no effect
17,D551K,with no effect
18,E663K,with no effect
19,T543K,with no effect
20,P556K,with no effect
21,H867A,with no effect
22,S570L,disrupting interaction strength
23,E770K,disrupting interaction strength
24,E761K,with no effect
25,S568A,with no effect
26,G638A,with no effect

row,Variant,effect of a mutation on the interaction
1,K532E,with no effect
2,I801A,with no effect
3,Q764A,with no effect
4,V459A,with no effect
5,V459K,with no effect
6,V459E,disrupting interaction strength
7,V461E,with no effect
8,G585A,with no effect
9,S414E,with no effect
10,D410A,with no effect
11,A633V,disrupting interaction strength
12,H652E,with no effect
13,A670K,with no effect
14,H694E,with no effect
15,R449E,with no effect
16,V856K,with no effect
17,S635E,with no effect
18,Q627K,with no effect
19,P540K,with no effect
20,S639A,with no effect
21,E765K,with no effect
22,D470A,with no effect
23,T441E,with no effect
24,I751E,with no effect
25,F580A,disrupting interaction strength
26,D409E,with no effect

row,Variant,effect of a mutation on the interaction
1,S423K,with no effect
2,S423E,with no effect
3,R669A,with no effect
4,L695A,with no effect
5,L695K,with no effect
6,L616A,with no effect
7,V885A,with no effect
8,V413A,with no effect
9,T845K,with no effect
10,H581K,with no effect
11,A455E,with no effect
12,L560K,with no effect
13,N448A,with no effect
14,N794E,with no effect
15,F632E,with no effect
16,T405K,with no effect
17,R600G,disrupting interaction strength
18,D517K,with no effect
19,R854E,with no effect
20,R656K,with no effect
21,R656E,with no effect
22,T496E,with no effect
23,S507A,with no effect
24,L720K,with no effect
25,N716A,with no effect
26,S828A,with no effect

row,Variant,effect of a mutation on the interaction
1,S787K,with no effect
2,I617E,with no effect
3,I676A,with no effect
4,S488A,with no effect
5,Q798A,with no effect
6,V417K,with no effect
7,L779E,with no effect
8,P564A,with no effect
9,P564K,with no effect
10,T874A,with no effect
11,A792E,disrupting interaction strength
12,S745A,with no effect
13,D429E,with no effect
14,D429K,with no effect
15,A544E,with no effect
16,H869A,with no effect
17,S596A,with no effect
18,V713E,with no effect
19,I738E,with no effect
20,R510E,with no effect
21,S667K,with no effect
22,Q672A,with no effect
23,L808A,with no effect
24,N576E,with no effect
